How the values were obtained:
[1] = test system: Gpa1(1–41)-human Gαi3 (36–354) in S. cerevisiae; test: G-protein activation in yeast (Fus3 phosphorylation); type: cell-based; settings: strain MMY11, ppFus3 immunoblot
Source text: G-protein activation assay in yeast
The native G-protein-dependent pheromone response pathway is similarly modified in both strains: the pheromone-activated GPCR (Ste2 or Ste3), endogenous Gα-subunit (Gpa1) and the cell cycle arrest-inducing protein far1 are deleted. In MMY11, the G-protein inhibitor Sst2 is also deleted. Both strains were transformed with a centromeric plasmid (CEN TRP) encoding a chimeric yeast Gpa1(1–41)-human Gαi3 (36–354) protein under the control of the endogenous Gpa1 promoter[68] (courtesy of Mary Cismowski, Nationwide Children's Hospital) using the lithium acetate method. […] Individual colonies were inoculated into 3 ml of SDGalactose-Trp-Ura and incubated overnight at 30 °C to induce the expression of the proteins of interest under the control of the galactose-inducible promoter of pYES2. This starting culture was used to inoculate 20 ml of SDGalactose-Trp-Ura at 0.3 OD600. Exponentially growing cells (∼0.7–0.8 OD600, 4–5 h) were pelleted to prepare samples for immunoblotting (see below). […]
Yeast protein samples for immunoblotting were prepared by acid lysis and precipitation followed by neutralization and solubilization. […] Proteins (∼15–20 μl per lane) were separated by SDS–PAGE, blocked in PBS supplemented with 5% BSA and analysed by sequential incubation with primary and secondary antibodies. […]

[2] = Circular dichroism and thermal denaturation of GIV-CT; type: physicochemical
Procedure: Circular dichroism measurements were performed on a Jasco J-810 spectropolarimeter (JASCO, Tokyo, Japan). The circular dichroism spectrum was recorded on a GIV-CT protein sample 8.4 μM in PBS (pH 7.0) with 0.2 mM DTT in a 0.2 cm path length quartz cuvette at 25 °C. The thermal denaturation curve from 5 to 95 °C was recorded on the same protein sample and cuvette by increasing temperature at a rate of 1 °C min^−1 and measuring the change in ellipticity at 222 nm.

Gαi3-GDP = test: NMR perturbation of Gαi3-GDP backbone amide signals; type: binding, human; settings: 30 °C, pH 7.0, TROSY
Procedure: Full-length human Gαi3 (UNIPROT entry P08754) cloned in a pET24d(+) plasmid (a generous gift from Ichio Shimada, University of Tokyo) was used to purify the protein used in NMR experiments. For this, protein expression was induced in BL21 Rosetta (Life Technologies) cell cultures with 1 mM IPTG for 16 h at 23 °C in a modified M9 minimal medium containing 1 g l^−1 15N-NH4Cl, 2 g l^−1 2H-^13C-glucose and 1 g l^−1 of ^2H-^13C-^15N Celtone base powder in ^2H2O with 30 mg l^−1 kanamycin and 34 mg l^−1 chloramphenicol. The pelleted cells were lysed by sonication in 50 mM Tris, 200 mM NaCl, 100 mM KCl and 1 mM DTT at pH 8.0, and the supernatant was loaded on a Ni^2+-loaded His-Trap FF column. […]
All NMR data were measured on a Bruker Avance III 800 MHz (18.8 T) spectrometer equipped with a cryogenically cooled triple resonance z-gradient probe, processed with Topspin (Bruker) and analysed with Sparky. […] Gαi3 spectra were recorded at 30 °C on ^2H-^13C-^15N–Gαi3 samples with a threefold molar excess of GDP in 10 mM HEPES (pH 7.0) with 10 mM MgCl2, 5 mm DTT, 0.01% NaN3 and 5% ^2H2O. […] The assignment of Gαi3 resonances in the presence of a fivefold molar excess of GIV fragment 1,671–1,696 was achieved from the joint analysis of an HNCO and ^1H–^15N TROSY spectra recorded along a titration (at molar ratios 1:0, 1:0.2,1:0.5, 1:1, 1:2 and 1:5). […]

| Molecule | activation of Gαi3 WT and Gαi3 N256E [1] | activation of Gαi3 ΔC9 [1] | thermal denaturation ([2]; 5 to 95 °C, 1 °C min^−1, ellipticity at 222 nm, PBS pH 7.0) | secondary structure by circular dichroism ([2]; […] in PBS pH 7.0, 0.2 mM DTT, 25 °C) | fraction of assigned peaks with significant chemical shift perturbations (Gαi3-GDP) [%] | overall decrease in signal intensity (median) (Gαi3-GDP; twofold molar excess GIV-CT) [fold] |
| --- | --- | --- | --- | --- | --- | --- |
| A2bR: human GPCR A2b receptor expressed in yeast (protein, UniProt P29275 1-332, looked up) Adenosine receptor A2b: MLLETQDALYVALELVIAALSVAGNVLVCAAVGTANTLQTPTNYFLVSLAAADVAVGLFAIPFAITISLGFCTDFYGCLFLACFVLVLTQSSIFSLLAVAVDRYLAICVPLRYKSLVTGTRARGVIAVLWVLAFGIGLTPFLGWNSKDSATNNCTEPWDGTTNESCCLVKCLFENVVPMSYMVYFNFFGCVLPPLLIMLVIYIKIFLVACRQLQRTELMDHSRTTLQREIHAAKSLAMIVGIFALCWLPVHAVNCVTLFQPAQGKNKPKWAMNMAILLSHANSVVNPIVYAYRNRDFRYTFHKIISRYLLCQADVKSGNGQAGVQPALGVGL | equally | completely blunted |  |  |  |  |
| GIV-CT: His-tagged human GIV residues 1,660–1,870 (protein, left off: His tag, N-terminal, kept) SETLESRHHKIKTGSPGSEVVTLQQFLEESNKLTSVQIKSSSQENLLDEVMKSLSVSSDFLGKDKPVSCGLARSVSGKTPGDFYDRRTTKPEFLRPGPRKTEDTYFISSAGKPTPGTQGKIKLVKESSLSRQSKDSNPYATLPRASSVISTAEGTTRRTSIHDFLTKDSRLPISVDSPPAAADSNTTAASNVDKVQESRNSKSRSREQQSS |  |  | no cooperative transition | little, if any, secondary structure | < 20 | ~3 |

— PMC5454376, “Molecular mechanism of Gαi activation by non-GPCR proteins with a Gα-Binding and Activating motif” (Nature Communications, 2017)
